Data from patent publication US20220016130A1 (MAYO FOUNDATION FOR MEDICAL EDUCATION AND RESEARCH, published 2022).

Key:
BRD4 [1] = target: T1, BRD4 (human, UniProt O60885 1-1362); assay: co-IP from 293T cells transfected with Flag-tagged USPs and HA-BRD4
T1 construct: One entry covers endogenous, Flag-tagged and HA-tagged full-length BRD4; also called FLAG-BRD4; Flag-BRD4
Experimental: (§1) To immunoprecipitate the ectopically expressed FLAG-tagged proteins, transfected cells were lysed 24 hours post-transfection in BC100 buffer. The whole-cell lysates were immunoprecipitated with the monoclonal anti-FLAG antibody-conjugated M2 agarose beads (Sigma-Aldrich) at 4° C. overnight. After three washes with lysis buffer, followed by two washes with BC100 buffer, the bound proteins were eluted using FLAG-Peptide (Sigma-Aldrich) prepared in BC100 for 3 hours at 4° C. The eluted protein sample was resolved by SDS-PAGE. To immunoprecipitate the endogenous proteins, cells were lysed with 1× cell lysis buffer (Cell Signaling Technology), and the lysate was centrifuged. The supernatant was precleared with protein A/G beads (Sigma-Aldrich) and incubated with the indicated antibody and protein A/G beads at 4° C. overnight. Beads were washed five times with lysis buffer and resuspended in sample buffer and analyzed by SDS-PAGE.

BRD4 [2] = target: T1, BRD4; assay: GST pull-down of Flag-BRD4 from PC-3 cells
NCOR2 = NCOR2 (human, UniProt Q9Y618 1-2514, limits assumed); assay: reciprocal co-IP of endogenous proteins in C4-2 cells
Experimental: as §1

BRD4 [3] = target: T1, BRD4; assay: co-IP from 293T cells transfected with Flag-tagged USPs (DUB3 and other DUBs) and HA-BRD4
Experimental: as §1

BRD2 = target: T2, BRD2 (human, UniProt P25440 1-801); assay: co-IP of endogenous proteins in PC-3 cells
T2 construct: One entry covers endogenous and FLAG-tagged full-length BRD2; also called FLAG-BRD2; Flag-BRD2
Experimental: as §1

BRD3 = target: T3, BRD3 (human, UniProt Q15059 1-726); assay: co-IP of endogenous proteins in PC-3 cells
T3 construct: One entry covers endogenous and FLAG-tagged full-length BRD3; also called FLAG-BRD3; Flag-BRD3
Experimental: as §1

T2 sequence (P25440 whole entry): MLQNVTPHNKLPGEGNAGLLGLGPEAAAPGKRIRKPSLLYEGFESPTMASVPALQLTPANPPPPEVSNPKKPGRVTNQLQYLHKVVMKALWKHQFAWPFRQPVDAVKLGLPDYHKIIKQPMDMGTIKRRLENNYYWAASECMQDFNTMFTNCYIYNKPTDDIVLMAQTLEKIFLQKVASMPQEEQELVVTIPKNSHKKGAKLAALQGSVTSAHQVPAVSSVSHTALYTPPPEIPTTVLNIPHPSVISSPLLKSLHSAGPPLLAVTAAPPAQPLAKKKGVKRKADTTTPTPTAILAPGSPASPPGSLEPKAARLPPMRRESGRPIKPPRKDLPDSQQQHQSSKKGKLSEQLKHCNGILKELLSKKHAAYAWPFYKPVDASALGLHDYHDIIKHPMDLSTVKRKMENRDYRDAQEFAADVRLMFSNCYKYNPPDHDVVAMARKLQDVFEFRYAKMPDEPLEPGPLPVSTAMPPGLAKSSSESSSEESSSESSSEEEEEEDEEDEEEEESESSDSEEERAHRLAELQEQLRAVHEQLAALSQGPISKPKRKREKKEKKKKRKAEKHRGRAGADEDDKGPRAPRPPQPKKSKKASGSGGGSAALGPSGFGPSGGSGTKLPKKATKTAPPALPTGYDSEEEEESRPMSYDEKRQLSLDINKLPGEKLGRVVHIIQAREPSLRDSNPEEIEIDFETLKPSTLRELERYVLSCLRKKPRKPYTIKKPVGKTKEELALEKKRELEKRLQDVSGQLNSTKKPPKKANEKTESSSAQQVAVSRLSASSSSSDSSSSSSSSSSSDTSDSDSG
T3 sequence (Q15059 whole entry): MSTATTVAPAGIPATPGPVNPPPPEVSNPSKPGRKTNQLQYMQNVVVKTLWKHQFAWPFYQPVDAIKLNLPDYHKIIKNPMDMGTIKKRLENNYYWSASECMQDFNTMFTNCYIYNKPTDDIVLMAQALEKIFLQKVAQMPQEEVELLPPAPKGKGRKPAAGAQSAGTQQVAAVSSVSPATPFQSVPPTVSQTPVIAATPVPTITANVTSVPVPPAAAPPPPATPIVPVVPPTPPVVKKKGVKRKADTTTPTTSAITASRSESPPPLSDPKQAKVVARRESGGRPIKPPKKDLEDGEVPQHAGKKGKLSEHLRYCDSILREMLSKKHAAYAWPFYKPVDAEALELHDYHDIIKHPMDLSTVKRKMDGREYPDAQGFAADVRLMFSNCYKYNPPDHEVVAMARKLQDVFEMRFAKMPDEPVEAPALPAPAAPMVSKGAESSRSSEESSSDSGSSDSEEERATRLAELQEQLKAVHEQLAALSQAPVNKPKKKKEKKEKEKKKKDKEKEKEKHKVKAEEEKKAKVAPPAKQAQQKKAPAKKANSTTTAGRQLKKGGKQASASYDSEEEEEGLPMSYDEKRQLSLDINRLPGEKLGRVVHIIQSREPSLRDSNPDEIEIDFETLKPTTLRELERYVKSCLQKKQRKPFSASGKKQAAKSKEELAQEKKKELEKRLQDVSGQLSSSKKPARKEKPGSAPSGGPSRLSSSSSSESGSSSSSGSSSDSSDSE
NCOR2, sequence (Q9Y618 whole entry): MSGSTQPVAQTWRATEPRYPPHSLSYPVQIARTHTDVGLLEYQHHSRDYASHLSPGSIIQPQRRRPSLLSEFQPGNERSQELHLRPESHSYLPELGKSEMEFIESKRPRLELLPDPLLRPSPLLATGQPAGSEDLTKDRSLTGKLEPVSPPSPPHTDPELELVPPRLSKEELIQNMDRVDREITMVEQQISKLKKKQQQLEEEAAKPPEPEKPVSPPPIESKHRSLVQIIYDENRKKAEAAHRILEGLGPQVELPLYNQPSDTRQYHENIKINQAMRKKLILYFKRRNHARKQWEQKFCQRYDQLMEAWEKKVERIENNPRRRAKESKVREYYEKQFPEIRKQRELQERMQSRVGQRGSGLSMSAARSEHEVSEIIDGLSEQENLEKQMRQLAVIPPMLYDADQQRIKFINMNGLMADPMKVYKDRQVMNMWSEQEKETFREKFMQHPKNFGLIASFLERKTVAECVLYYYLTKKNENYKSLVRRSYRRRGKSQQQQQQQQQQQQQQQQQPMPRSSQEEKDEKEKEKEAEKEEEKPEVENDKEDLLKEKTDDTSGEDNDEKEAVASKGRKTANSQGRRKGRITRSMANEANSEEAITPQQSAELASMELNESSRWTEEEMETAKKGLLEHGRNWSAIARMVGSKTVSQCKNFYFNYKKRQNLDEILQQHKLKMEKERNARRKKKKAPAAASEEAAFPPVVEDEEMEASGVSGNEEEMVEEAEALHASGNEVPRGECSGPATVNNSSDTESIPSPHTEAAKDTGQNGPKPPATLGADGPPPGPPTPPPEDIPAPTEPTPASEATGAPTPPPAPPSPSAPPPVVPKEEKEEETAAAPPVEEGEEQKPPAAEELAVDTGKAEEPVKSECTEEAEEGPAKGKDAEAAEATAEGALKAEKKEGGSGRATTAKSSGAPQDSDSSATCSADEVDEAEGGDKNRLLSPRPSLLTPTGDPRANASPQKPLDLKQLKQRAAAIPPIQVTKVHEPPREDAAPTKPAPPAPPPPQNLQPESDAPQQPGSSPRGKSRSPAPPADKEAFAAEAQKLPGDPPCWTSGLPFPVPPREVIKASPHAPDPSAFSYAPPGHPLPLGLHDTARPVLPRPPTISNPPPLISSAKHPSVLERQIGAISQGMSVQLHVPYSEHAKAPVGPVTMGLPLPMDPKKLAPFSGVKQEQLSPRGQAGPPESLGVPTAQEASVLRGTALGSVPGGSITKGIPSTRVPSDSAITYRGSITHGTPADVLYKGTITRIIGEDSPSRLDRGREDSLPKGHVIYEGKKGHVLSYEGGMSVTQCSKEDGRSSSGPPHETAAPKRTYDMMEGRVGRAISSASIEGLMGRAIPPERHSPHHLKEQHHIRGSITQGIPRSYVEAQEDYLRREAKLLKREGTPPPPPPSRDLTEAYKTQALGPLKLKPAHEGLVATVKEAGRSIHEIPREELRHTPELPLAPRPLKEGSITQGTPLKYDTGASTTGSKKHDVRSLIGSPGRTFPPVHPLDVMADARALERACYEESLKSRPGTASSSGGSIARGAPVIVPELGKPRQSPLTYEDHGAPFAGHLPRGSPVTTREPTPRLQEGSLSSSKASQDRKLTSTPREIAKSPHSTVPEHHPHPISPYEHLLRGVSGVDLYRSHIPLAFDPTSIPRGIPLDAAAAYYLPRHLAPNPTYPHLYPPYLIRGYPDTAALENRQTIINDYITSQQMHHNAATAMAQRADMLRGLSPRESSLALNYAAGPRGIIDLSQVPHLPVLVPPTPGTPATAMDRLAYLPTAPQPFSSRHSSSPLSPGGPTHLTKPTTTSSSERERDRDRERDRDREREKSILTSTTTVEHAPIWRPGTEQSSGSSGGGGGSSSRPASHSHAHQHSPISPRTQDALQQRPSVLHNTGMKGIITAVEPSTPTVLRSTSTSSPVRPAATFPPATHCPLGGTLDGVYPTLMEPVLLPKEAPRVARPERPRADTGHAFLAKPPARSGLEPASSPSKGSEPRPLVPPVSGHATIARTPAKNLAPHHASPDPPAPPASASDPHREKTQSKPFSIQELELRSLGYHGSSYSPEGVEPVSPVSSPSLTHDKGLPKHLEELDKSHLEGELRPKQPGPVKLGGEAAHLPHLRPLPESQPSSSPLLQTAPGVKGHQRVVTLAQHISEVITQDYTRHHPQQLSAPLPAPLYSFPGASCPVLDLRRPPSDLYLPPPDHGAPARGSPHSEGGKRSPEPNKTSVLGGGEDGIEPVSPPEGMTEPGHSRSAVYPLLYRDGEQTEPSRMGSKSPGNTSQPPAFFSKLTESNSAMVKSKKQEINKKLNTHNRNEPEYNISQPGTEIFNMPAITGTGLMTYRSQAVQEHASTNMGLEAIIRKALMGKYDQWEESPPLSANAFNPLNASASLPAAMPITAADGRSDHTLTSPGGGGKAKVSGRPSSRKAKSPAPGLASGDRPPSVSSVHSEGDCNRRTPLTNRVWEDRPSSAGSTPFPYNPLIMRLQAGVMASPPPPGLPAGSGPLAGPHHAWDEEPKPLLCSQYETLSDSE

B1: Flag-USP49 (enzyme, UniProt Q70CQ1 1-688, looked up)
chain: MDRCKHVGRLRLAQDHSILNPQKWCCLECATTESVWACLKCSHVACGRYIEDHALKHFEETGHPLAMEVRDLYVFCYLCKDYVLNDNPEGDLKLLRSSLLAVRGQKQDTPVRRGRTLRSMASGEDVVLPQRAPQGQPQMLTALWYRRQRLLARTLRLWFEKSSRGQAKLEQRRQEEALERKKEEARRRRREVKRRLLEELASTPPRKSARLLLHTPRDAGPAASRPAALPTSRRVPAATLKLRRQPAMAPGVTGLRNLGNTCYMNSILQVLSHLQKFRECFLNLDPSKTEHLFPKATNGKTQLSGKPTNSSATELSLRNDRAEACEREGFCWNGRASISRSLELIQNKEPSSKHISLCRELHTLFRVMWSGKWALVSPFAMLHSVWSLIPAFRGYDQQDAQEFLCELLHKVQQELESEGTTRRILIPFSQRKLTKQVLKVVNTIFHGQLLSQVTCISCNYKSNTIEPFWDLSLEFPERYHCIEKGFVPLNQTECLLTEMLAKFTETEALEGRIYACDQCNSKRRKSNPKPLVLSEARKQLMIYRLPQVLRLHLKRFRWSGRNHREKIGVHVVFDQVLTMEPYCCRDMLSSLDKETFAYDLSAVVMHHGKGFGSGHYTAYCYNTEGGFWVHCNDSKLNVCSVEEVCKTQAYILFYTQRTVQGNARISETHLQAQVQSSNNDEGRPQTFS
notes: not shown: Flag tag
binding result (BRD4 [1]): no binding

B2: GST-DUB3 C-terminal fragment (other, UniProt Q6R6M4 399-530, looked up)
chain: TDRRATQGELKRDHPCLQAPELDERLVERATQESTLDHWKFPQEQNKTKPEFNVRKVEGTLPPNVLVIHQSKYKCGMKNHHPEQQSSLLNLSSTTRTDQESVNTGTLASLQGRTRRSKGKNKHSKRALLVCQ
notes: also called C-terminal fragment of DUB3; not shown: glutathione S-transferase (GST) tag
binding result (BRD4 [2]): no binding

B3: Flag-USP28 (enzyme, UniProt Q96RU2 1-1077, looked up)
chain: MTAELQQDDAAGAADGHGSSCQMLLNQLREITGIQDPSFLHEALKASNGDITQAVSLLTDERVKEPSQDTVATEPSEVEGSAANKEVLAKVIDLTHDNKDDLQAAIALSLLESPKIQADGRDLNRMHEATSAETKRSKRKRCEVWGENPNPNDWRRVDGWPVGLKNVGNTCWFSAVIQSLFQLPEFRRLVLSYSLPQNVLENCRSHTEKRNIMFMQELQYLFALMMGSNRKFVDPSAALDLLKGAFRSSEEQQQDVSEFTHKLLDWLEDAFQLAVNVNSPRNKSENPMVQLFYGTFLTEGVREGKPFCNNETFGQYPLQVNGYRNLDECLEGAMVEGDVELLPSDHSVKYGQERWFTKLPPVLTFELSRFEFNQSLGQPEKIHNKLEFPQIIYMDRYMYRSKELIRNKRECIRKLKEEIKILQQKLERYVKYGSGPARFPLPDMLKYVIEFASTKPASESCPPESDTHMTLPLSSVHCSVSDQTSKESTSTESSSQDVESTFSSPEDSLPKSKPLTSSRSSMEMPSQPAPRTVTDEEINFVKTCLQRWRSEIEQDIQDLKTCIASTTQTIEQMYCDPLLRQVPYRLHAVLVHEGQANAGHYWAYIYNQPRQSWLKYNDISVTESSWEEVERDSYGGLRNVSAYCLMYINDKLPYFNAEAAPTESDQMSEVEALSVELKHYIQEDNWRFEQEVEEWEEEQSCKIPQMESSTNSSSQDYSTSQEPSVASSHGVRCLSSEHAVIVKEQTAQAIANTARAYEKSGVEAALSEVMLSPAMQGVILAIAKARQTFDRDGSEAGLIKAFHEEYSRLYQLAKETPTSHSDPRLQHVLVYFFQNEAPKRVVERTLLEQFADKNLSYDERSISIMKVAQAKLKEIGPDDMNMEEYKKWHEDYSLFRKVSVYLLTGLELYQKGKYQEALSYLVYAYQSNAALLMKGPRRGVKESVIALYRRKCLLELNAKAASLFETNDDHSVTEGINVMNELIIPCIHLIINNDISKDDLDAIEVMRNHWCSYLGQDIAENLQLCLGEFLPRLLDPSAEIIVLKEPPTIRPNSPYDLCSRFAAVMESIQGVSTVTVK
notes: not shown: Flag tag
binding result (BRD4 [1]): no binding

B4: HDAC10 (enzyme, human, UniProt Q969S8 1-669, looked up)
chain: MGTALVYHEDMTATRLLWDDPECEIERPERLTAALDRLRQRGLEQRCLRLSAREASEEELGLVHSPEYVSLVRETQVLGKEELQALSGQFDAIYFHPSTFHCARLAAGAGLQLVDAVLTGAVQNGLALVRPPGHHGQRAAANGFCVFNNVAIAAAHAKQKHGLHRILVVDWDVHHGQGIQYLFEDDPSVLYFSWHRYEHGRFWPFLRESDADAVGRGQGLGFTVNLPWNQVGMGNADYVAAFLHLLLPLAFEFDPELVLVSAGFDSAIGDPEGQMQATPECFAHLTQLLQVLAGGRVCAVLEGGYHLESLAESVCMTVQTLLGDPAPPLSGPMAPCQSALESIQSARAAQAPHWKSLQQQDVTAVPMSPSSHSPEGRPPPLLPGGPVCKAAASAPSSLLDQPCLCPAPSVRTAVALTTPDITLVLPPDVIQQEASALREETEAWARPHESLAREEALTALGKLLYLLDGMLDGQVNSGIAATPASAAAATLDVAVRRGLSHGAQRLLCVALGQLDRPPDLAHDGRSLWLNIRGKEAAALSMFHVSTPLPVMTGGFLSCILGLVLPLAYGFQPDLVLVALGPGHGLQGPHAALLAAMLRGLAGGRVLALLEENSTPQLAGILARVLNGEAPPSLGPSSVASPEDVQALMYLRGQLEPQWKMLQCHPHLVA
binding result (NCOR2): binds

B5: Flag-USP13 (enzyme, UniProt Q92995 1-863, looked up)
chain: MQRRGALFGMPGGSGGRKMAAGDIGELLVPHMPTIRVPRSGDRVYKNECAFSYDSPNSEGGLYVCMNTFLAFGREHVERHFRKTGQSVYMHLKRHVREKVRGASGGALPKRRNSKIFLDLDTDDDLNSDDYEYEDEAKLVIFPDHYEIALPNIEELPALVTIACDAVLSSKSPYRKQDPDTWENELPVSKYANNLTQLDNGVRIPPSGWKCARCDLRENLWLNLTDGSVLCGKWFFDSSGGNGHALEHYRDMGYPLAVKLGTITPDGADVYSFQEEEPVLDPHLAKHLAHFGIDMLHMHGTENGLQDNDIKLRVSEWEVIQESGTKLKPMYGPGYTGLKNLGNSCYLSSVMQAIFSIPEFQRAYVGNLPRIFDYSPLDPTQDFNTQMTKLGHGLLSGQYSKPPVKSELIEQVMKEEHKPQQNGISPRMFKAFVSKSHPEFSSNRQQDAQEFFLHLVNLVERNRIGSENPSDVFRFLVEERIQCCQTRKVRYTERVDYLMQLPVAMEAATNKDELIAYELTRREAEANRRPLPELVRAKIPFSACLQAFSEPENVDDFWSSALQAKSAGVKTSRFASFPEYLVVQIKKFTFGLDWVPKKFDVSIDMPDLLDINHLRARGLQPGEEELPDISPPIVIPDDSKDRLMNQLIDPSDIDESSVMQLAEMGFPLEACRKAVYFTGNMGAEVAFNWIIVHMEEPDFAEPLTMPGYGGAASAGASVFGASGLDNQPPEEIVAIITSMGFQRNQAIQALRATNNNLERALDWIFSHPEFEEDSDFVIEMENNANANIISEAKPEGPRVKDGSGTYELFAFISHMGTSTMSGHYICHIKKEGRWVIYNDHKVCASERPPKDLGYMYFYRRIPS
notes: not shown: Flag tag
binding result (BRD4 [1]): no binding

B6: DUB3 (enzyme, human, UniProt Q6R6M4 1-530, looked up)
chain: MEDDSLYLGGEWQFNHFSKLTSSRPDAAFAEIQRTSLPEKSPLSSEARVDLCDDLAPVARQLAPRKKLPLSSRRPAAVGAGLQNMGNTCYENASLQCLTYTPPLANYMLSREHSQTCQRPKCCMLCTMQAHITWALHSPGHVIQPSQALAAGFHRGKQEDAHEFLMFTVDAMKKACLPGHKQVDHHSKDTTLIHQIFGGCWRSQIKCLHCHGISDTFDPYLDIALDIQAAQSVKQALEQLVKPEELNGENAYHCGLCLQRAPASKTLTLHTSAKVLILVLKRFSDVTGNKLAKNVQYPECLDMQPYMSQQNTGPLVYVLYAVLVHAGWSCHDGHYFSYVKAQEGQWYKMDDAKVTACSITSVLSQQAYVLFYIQKSEWERHSESVSRGREPRALGAEDTDRRATQGELKRDHPCLQAPELDERLVERATQESTLDHWKFPQEQNKTKPEFNVRKVEGTLPPNVLVIHQSKYKCGMKNHHPEQQSSLLNLSSTTRTDQESVNTGTLASLQGRTRRSKGKNKHSKRALLVCQ
notes: One entry covers endogenous, HA-tagged and Flag-tagged full-length DUB3; also called USP17L2; USP17
binding result (BRD4 [3]): binds
binding result (BRD2): no binding
binding result (BRD3): no binding

B7: Flag-USP15 (enzyme, UniProt Q9Y4E8 1-981, looked up)
chain: MAEGGAADLDTQRSDIATLLKTSLRKGDTWYLVDSRWFKQWKKYVGFDSWDKYQMGDQNVYPGPIDNSGLLKDGDAQSLKEHLIDELDYILLPTEGWNKLVSWYTLMEGQEPIARKVVEQGMFVKHCKVEVYLTELKLCENGNMNNVVTRRFSKADTIDTIEKEIRKIFSIPDEKETRLWNKYMSNTFEPLNKPDSTIQDAGLYQGQVLVIEQKNEDGTWPRGPSTPKSPGASNFSTLPKISPSSLSNNYNNMNNRNVKNSNYCLPSYTAYKNYDYSEPGRNNEQPGLCGLSNLGNTCFMNSAIQCLSNTPPLTEYFLNDKYQEELNFDNPLGMRGEIAKSYAELIKQMWSGKFSYVTPRAFKTQVGRFAPQFSGYQQQDCQELLAFLLDGLHEDLNRIRKKPYIQLKDADGRPDKVVAEEAWENHLKRNDSIIVDIFHGLFKSTLVCPECAKISVTFDPFCYLTLPLPMKKERTLEVYLVRMDPLTKPMQYKVVVPKIGNILDLCTALSALSGIPADKMIVTDIYNHRFHRIFAMDENLSSIMERDDIYVFEININRTEDTEHVIIPVCLREKFRHSSYTHHTGSSLFGQPFLMAVPRNNTEDKLYNLLLLRMCRYVKISTETEETEGSLHCCKDQNINGNGPNGIHEEGSPSEMETDEPDDESSQDQELPSENENSQSEDSVGGDNDSENGLCTEDTCKGQLTGHKKRLFTFQFNNLGNTDINYIKDDTRHIRFDDRQLRLDERSFLALDWDPDLKKRYFDENAAEDFEKHESVEYKPPKKPFVKLKDCIELFTTKEKLGAEDPWYCPNCKEHQQATKKLDLWSLPPVLVVHLKRFSYSRYMRDKLDTLVDFPINDLDMSEFLINPNAGPCRYNLIAVSNHYGGMGGGHYTAFAKNKDDGKWYYFDDSSVSTASEDQIVSKAAYVLFYQRQDTFSGTGFFPLDRETKGASAATGIPLESDEDSNDNDNDIENENCMHTN
notes: not shown: Flag tag
binding result (BRD4 [1]): no binding
